# Data as given in patent US8013137B2, “Modified enteropeptidase protein” (National University Corporation Hokkaido University, priority 2006, dated 2011).
# Experiments:
# GD4K-βNA = experiment: EP activity and kinetic study with specific substrate GD4K-βNA; format: biochemical; details: for Km / kcat: substrate GD4K-βna
# Experimental: (§1) (A) Active recombinant EP proteases were assayed using a GD4K-βNA (SEQ ID NO: 6) substrate as a substrate. Bovine (Nvg), bovine EP protease available from Novagen; Bovine (Neb), bovine EP protease available from NEB. (B) Active recombinant EP proteases were assayed using various synthetic peptide substrates. (C) Active EP proteases were analyzed by gelatin zymography. (D) Fibronectin (4 μg) was incubated with active EPs (100 ng) at 37° C. for 12 h. (E) Laminin ((10 μg) was incubated with active recombinant EPs (100 ng) at 37° C. for 12 h. (F) Two μg of the control protein containing the D4K site (SEQ ID NO: 1) was incubated with active recombinant EPs (100 ng) at 37° C. for 1 h.
# (A) The purity of purified recombinant Medaka EP-1 and EP-2 protease was assessed by SDS-PAGE. Lane 1, Medaka EP fusion protein; lane 2, Medaka EP protease treated with immobilized trypsin; lane 3, Medaka EP protease purified using a resource Q column. (B) The enzyme activities of EP proteases were determined at various pHs using GD4K-βNA (SEQ ID NO: 6) as a substrate. (C) Recombinant Medaka trypsinogen was incubated at 37° C. with EPs for 15, 30 and 45 min. After incubation, samples were analyzed by SDS-PAGE and visualized by CBB staining (upper panel). The relative amount of the active form of Medaka trypsin at each time point were calculated based on the results shown in the upper panel (lower panel). The results are presented as the means (±SD) of three separate experiments.
# (§2) EP activity was routinely determined using the specific substrate Gly-Asp-Asp-Asp-Asp-Lys-β-naphthylamide (GD4K-βNA) (SEQ ID NO: 6) (Sigma) according to the method of Mikhailova and Rumsh (Mikhailova et al., FEBS Lett., 442:226-230 (1999)). Enzyme activity for various 4-methylcoumaryl-7-amide (MCA)-containing peptide substrates was determined by the method of Barrett (Barrett et al., J., Biochem. J., 187:909-912 (1980)). For kinetic studies, initial velocities, extrapolated from the plot of product versus time, were transformed into double-reciprocal plots (Lineweaver et al., J. Am. Chem. Soc., 56:658-663 (1934)). The maximum velocities (Vmax) and Km and kcat values were obtained from the intercepts of these plots. For all experiments, the results of at least three separate determinations are shown.
# [1] = system: recombinant fusion protein of human kallikrein 8 (hK8); experiment: Cleavage of recombinant fusion protein of human kallikrein 8 (hK8); format: biochemical; details: 37° C., 2 h, 100 ng EP
# Experimental: (§3) (A) A recombinant fusion protein of Medaka gelatinase A (5 μg) was separately incubated with active EP proteases (100 ng) at 37° C. for 1 h, and analyzed by SDS-PAGE. (B) A recombinant fusion protein of human kallikrein 8 (hK8) (5 μg) was incubated with active EP proteases (100 ng) at 37° C. for 2 h. After incubation, the samples were analyzed by SDS-PAGE (upper panel), or assayed for activity with Pro-Phe-Arg-MCA (middle panel), or Boc-Glu(OBzl)-Ala-Arg-MCA (lower panel). […] The samples were then analyzed by SDS-PAGE/Western blotting using anti-human tPA antibody (upper panel) or anti-His probe antibody (lower panel). The position of sctPA (58- and 61-kDa) detected with the antibodies is shown.
# (§4) The effect of Medaka EP serine protease on various fusion proteins containing a D4K-cleavage site (SEQ ID NO: 1) was examined. […]
# Pro-Phe-Arg-MCA = experiment: Activity assay of EP proteases and EP-treated hK8 samples with Pro-Phe-Arg-MCA (FIG. 4B middle); format: biochemical
# Experimental: as §3, §2
# Next, a 35.5-kDa protein of human kallikrein 8 (hK8) in the same E. coli expression system was synthesized. Digestion with Medaka wild-type and mutant EP proteases generated 31.5-kDa active hK8 by cleaving the D4K sequence (SEQ ID NO: 1) (FIG. 4B, Top). […] The EP protease-treated samples were directly assayed for hK8 activity using Pro-Phe-Arg-MCA, a good synthetic peptide substrate of hK8 (Rajapakse et al., FEBS Lett., 579:6879-6884 (2005)). […] The substrate Boc-Glu(OBzl)-Ala-Arg-MCA, which is slightly cleaved by active hK8, was rapidly hydrolyzed with the samples treated with mammalian, but not Medaka, EP proteases (FIG. 4B, Bottom).
# [2] = system: Boc-Glu(OBzl)-Ala-Arg-MCA, Z-Phe-Arg-MCA, and Pro-Phe-Arg-MCA; experiment: Amidolytic activity for synthetic MCA-containing peptide substrates (panel); format: biochemical; details: FIG. 2B
# [3] = system: recombinant Medaka trypsinogen; experiment: Activation of recombinant Medaka trypsinogen, SDS-PAGE; format: biochemical; details: 37° C., 15, 30 and 45 min
# [4] = Enzyme stability, residual activity using GD4K-βNA; format: physicochemical
# Experimental: […] Aliquots of the reaction mixtures were taken at the indicated times for an activity assay using GD4K-βNA (SEQ ID NO: 6) as a substrate. The enzyme activities relative to that at 0-time are shown.
# […] The enzyme activity was measured at various time points (0 to 96 h) using GD4K-βNA (SEQ ID NO: 6) as a substrate.
# gelatin = experiment: Gelatin zymography; format: biochemical; details: FIG. 2C
# Experimental: as §1, §4
# Human plasma fibronectin = experiment: Hydrolysis of fibronectin, SDS-PAGE; format: biochemical; details: 37° C., 12 h, 100 ng EP
# Experimental: as §1, §4
# mouse laminin = experiment: Hydrolysis of laminin, SDS-PAGE; format: biochemical; details: 37° C., 12 h, 100 ng EP
# Experimental: as §1, §4
# [5] = system: D4K-cleavage site-containing control protein; experiment: Cleavage of D4K-cleavage site-containing control protein (Novagen); format: biochemical; details: 37° C., 1 h, 100 ng EP
# Experimental: as §1, §4
# [6] = system: GD4K-βNA and the three MCA-containing substrates; experiment: Specific activities of wild-type and mutant EP protease using synthetic peptide substrates (FIG. 3A); format: biochemical
# Experimental: (§5) (A) The specific activities of wild-type (EP-1) and mutant EP protease were determined using synthetic peptide substrates. (B) High-molecular-weight (HMW) kininogen (5 μg) was incubated with active EP proteases (100 ng) at 37° C. for 2 h and analyzed by SDS-PAGE. (C) Fibrinogen (10 μg) was incubated with active EP proteases (100 ng) at 37° C. for 12 h and analyzed by SDS-PAGE.
# as §2
# [7] = system: human high-molecular-weight (HMW) kininogen; experiment: Hydrolysis of HMW kininogen, SDS-PAGE; format: biochemical; details: 37° C., 2 h, 100 ng EP
# Experimental: as §5
# (§6) The effect of Medaka EP serine protease on various fusion proteins containing a D4K-cleavage site (SEQ ID NO: 1) was examined. Human plasma fibronectin (Chemicon, Temecula, Calif.), human fibrinogen (Merk Biosciences, Tokyo, Japan), human high-molecular-weight (HMW) kininogen (Calbiochem, La Jolla, Calif.), mouse laminin (Biomedical Technologies Inc., Stoughton, Mass.), D4K-cleavage site-containing (SEQ ID NO: 1) control protein (Novagen), Medaka gelatinase A (Ogiwara et al., Proc. Natl. Acad. Sci. USA, 102:8442-8447 (2005)) and trypsinogen (this study), human kallikrein 8 (hK8) (Rajapakse et al., FEBS Lett., 579:6879-6884 (2005)) and human tissue-type plasminogen activator (tPA) were incubated at 37° C. in 20 mM Tris.HCl buffer (pH 7.4) containing 50 mM NaCl and 2 mM CaCl2 with various EP serine proteases at ratios (w/w) ranging from 20:1 to 100:1. After incubation, samples were subjected to SDS-PAGE followed by Coomassie Brilliant Blue staining. […]
# human fibrinogen = experiment: Hydrolysis of fibrinogen, SDS-PAGE; format: biochemical; details: 37° C., 12 h, 100 ng EP
# Experimental: as §5, §6
# [8] = system: recombinant fusion protein of Medaka gelatinase A; experiment: Cleavage of recombinant fusion protein of Medaka gelatinase A; format: biochemical; details: 37° C., 1 h, 100 ng EP
# [9] = system: human single-chain tPA fusion protein; experiment: Cleavage of human single-chain tPA fusion protein, Western blotting; format: biochemical; details: 37° C., 1 h, 100 ng EP
molecule,measurement,setting,value
Porcine: active recombinant enzyme of the porcine EP serine protease domain (Ile800 to His1034) (protein) IVGGNDSREGAWPWVVALYYNGQLLCGASLVSRDWLVSAAHCVYGRNLEPSKWKAILGLHMTSNLTSPQIVTRLIDEIVINPHYNRRRKDSDIAMMHLEFKVNYTDYIQPICLPEENQVFPPGRICSIAGWGKVIYQGSPADILQEADVPLLSNEKCQQQMPEYNITENMMCAGYEEGGIDSCQGDSGGPLMCLENNRWLLAGVTSFGYQCALPNRPGVYARVPKFTEWIQSFLH,Km,GD4K-βNA,400 µM
same,kcat,GD4K-βNA,8.83 s⁻¹
same,cleavage of hK8 fusion protein,[1],extensively degraded the substrate
same,enzyme activity of the EP protease itself with Pro-Phe-Arg-MCA,Pro-Phe-Arg-MCA,considerable enzyme activities were detected
"EP-1: recombinant serine protease domain of Medaka (Oryzias latipes) enteropeptidase-1, wild type, SEQ ID NO: 2 (protein, Oryzias latipes) VVGGVNAEKGAWPWMVSLHWRGRHGCGASLIGRDWLLTAAHCVYGKNTHLQYWSAVLGLHAQSSMNSQEVQIRQVDRIIINKNYNRRTKEADIAMMHLQQPVNFTEWVLPVCLASEDQHFPAGRRCFIAGWGRDAEGGSLPDILQEAEVPLVDQDECQRLLPEYTFTSSMLCAGYPEGGVDSCQGDSGGPLMCLEDARWTLIGVTSFGVGCGRPERPGAYARVSAFTSWIAETRRSSFSDLD",rate of GD4K-βNA cleavage compared with porcine and bovine enzymes,GD4K-βNA; FIG. 2A,at a rate comparable to those of the porcine and bovine enzymes
same,activity for GD4K-βNA relative to EP-2,GD4K-βNA; FIG. 8B,approximately three times more active than EP-2
same,pH of maximal activity for GD4K-βNA,"GD4K-βNA; serine protease domain, FIG. 8B",8
same,Km,GD4K-βNA,700 µM
same,kcat,GD4K-βNA,15.7 s⁻¹
same,amidolytic activities for synthetic MCA-containing peptide substrates compared with mammalian EP proteases,[2],much lower than those of the EP proteases of mammalian origin
same,conversion of recombinant Medaka trypsinogen to active trypsin,[3],converted to active trypsin by EP-1 faster than by EP-2
same,stability of enzyme activity on storage,[4]; 4° C.,the initial enzyme activity was retained at both temperatures for at least six months
same,loss of enzyme activity,"[4]; 37° C., neutral pH, after 4 days of incubation",about 30%
same,stability of enzyme activity on storage,[4]; −20° C.,the initial enzyme activity was retained at both temperatures for at least six months
same,hydrolysis of gelatin,gelatin,Little or no hydrolysis
same,hydrolysis of fibronectin,Human plasma fibronectin,Little or no hydrolysis
same,hydrolysis of laminin,mouse laminin,Little or no hydrolysis
same,cleavage of fusion protein containing an EP-cleavage site (Novagen),[5],specifically cleaved the fusion protein to generate two polypeptides having expected molecular masses of 16- and 32-kDa
same,enzyme activity of the EP protease itself with Pro-Phe-Arg-MCA,Pro-Phe-Arg-MCA,"none of the Medaka EP proteases (wild-type EP-1, K63R, E173A, or E193A) showed any significant enzyme activity"
"E173A: EP-1 with E173A mutation, SEQ ID NO: 4 (protein, Oryzias latipes) VVGGVNAEKGAWPWMVSLHWRGRHGCGASLIGRDWLLTAAHCVYGKNTHLQYWSAVLGLHAQSSMNSQEVQIRQVDRIIINKNYNRRTKEADIAMMHLQQPVNFTEWVLPVCLASEDQHFPAGRRCFIAGWGRDAEGGSLPDILQEAEVPLVDQDACQRLLPEYTFTSSMLCAGYPEGGVDSCQGDSGGPLMCLEDARWTLIGVTSFGVGCGRPERPGAYARVSAFTSWIAETRRSSFSDLD",Km,GD4K-βNA,300 µM
same,kcat,GD4K-βNA,5.33 s⁻¹
same,enzyme activity for synthetic peptide substrates compared with the wild-type enzyme,[6],significantly lower activities than the wild-type enzyme toward all the synthetic substrates tested
same,nonspecific proteolytic activity for human HMW kininogen,[7],retained a low nonspecific proteolytic activity
same,nonspecific proteolytic activity for human fibrinogen,human fibrinogen,retained a low nonspecific proteolytic activity
same,cleavage of Medaka gelatinase A fusion protein,[8],no serious reduction of the D4K (SEQ ID NO: 1) cleaving activity
same,cleavage of hK8 fusion protein,[1],no serious reduction of the D4K (SEQ ID NO: 1) cleaving activity
same,enzyme activity of the EP protease itself with Pro-Phe-Arg-MCA,Pro-Phe-Arg-MCA,"none of the Medaka EP proteases (wild-type EP-1, K63R, E173A, or E193A) showed any significant enzyme activity"
same,cleavage of human single-chain tPA fusion protein,[9],no serious reduction of the D4K (SEQ ID NO: 1) cleaving activity
